Results reported in PMC10156788, “Molecular architecture of the Gαi-bound TRPC5 ion channel” (Nature Communications, 2023).

Tests used:
[1] = target: T1, EGFP-tagged human TRPC5EM (amino acids 1 to 765) in lipid nanodiscs (human, UniProt Q9UL62 1-765); experiment: cell-based or functional assay
T1 sequence (looked up): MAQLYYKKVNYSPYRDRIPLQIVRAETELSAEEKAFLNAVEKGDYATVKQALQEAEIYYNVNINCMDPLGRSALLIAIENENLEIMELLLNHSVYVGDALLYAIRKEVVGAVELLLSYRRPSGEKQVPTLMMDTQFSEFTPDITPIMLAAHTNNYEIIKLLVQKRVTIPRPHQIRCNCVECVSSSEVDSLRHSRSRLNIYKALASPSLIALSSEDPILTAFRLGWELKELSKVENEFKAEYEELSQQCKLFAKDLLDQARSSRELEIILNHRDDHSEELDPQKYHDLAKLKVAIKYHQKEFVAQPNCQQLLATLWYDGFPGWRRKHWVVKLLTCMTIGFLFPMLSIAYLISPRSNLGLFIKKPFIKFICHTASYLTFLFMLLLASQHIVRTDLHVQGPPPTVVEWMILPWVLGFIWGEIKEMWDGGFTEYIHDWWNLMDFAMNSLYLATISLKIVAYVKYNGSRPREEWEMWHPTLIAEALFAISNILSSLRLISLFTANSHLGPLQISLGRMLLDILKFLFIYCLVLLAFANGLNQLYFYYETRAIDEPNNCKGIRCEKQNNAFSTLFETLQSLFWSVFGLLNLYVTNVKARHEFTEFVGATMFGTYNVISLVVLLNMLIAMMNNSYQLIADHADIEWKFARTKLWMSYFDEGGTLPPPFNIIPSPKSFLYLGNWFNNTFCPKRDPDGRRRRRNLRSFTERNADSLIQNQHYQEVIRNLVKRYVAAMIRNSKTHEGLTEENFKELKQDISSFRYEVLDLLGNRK

[2] = target: T1, EGFP-tagged human TRPC5EM (amino acids …); experiment: BLI; BLItz, AR2G biosensors; EGFP-tagged TRPC5 in lipid nanodiscs (500 nM) immobilised by NHS/EDC; GTP-activated Gαi3^Q204L flowed at 0.31-1.25 μM, 300 s association, 300 s dissociation; 20 mM HEPES-NaOH pH 8.0, 150 mM NaCl; fitted by specific binding with Hill slope; conditions: both partners purified
[3] = target: T2, human TRPC5 (amino acids 1 to 765, TRPC5EM) in lipid nanodiscs, EGFP and Twin-StrepII-tag removed (human, UniProt Q9UL62 1-765); experiment: cryo-EM structure; TRPC5EM in MSP2N2/soybean lipid nanodiscs, alone or mixed with GTP-activated N-myristoylated Gαi3^Q204L at Gα:TRPC5 monomer = 6:1; Buffer A (50 mM Tris-HCl pH 8.0, 150 mM NaCl, 1 mM DTT) with 5 μM GTP; 2.5 mM CaCl2 added before vitrification; no PIP2; conditions: both partners purified
T2 construct: transient receptor potential canonical 5 (TRPC5), human, amino acids 1 to 765; C-terminal loop region (residues 766-973) truncated; Tags removed with HRV-3C protease after the complex with Gαi3 was formed; residues of the HRV-3C site may be left at the C-terminus; Reconstituted in MSP2N2 nanodiscs; also called TRPC5_(Class1); TRPC5_(Class2); source: HEK293S GnTI- suspension cells (BacMam), …
T2 sequence (looked up): T1 sequence (looked up)

fold increase in open probability (Po) by Gαi3 (14.6 μM against 0.07 μM) at physiological PIP2, excised inside-out patch [1]: ~7 fold | Kd [2]: 530 nM | stoichiometry N [3]: ≤ 4 Gαi3 per TRPC5 tetramer
B1: N-myristoylated human Gαi3^Q204L, GTP-activated (natural protein)
chain: TLSAEDKAAVERSKMIDRNLREDGEKAAKEVKLLLLGAGESGKSTIVKQMKIIHEDGYSEDECKQYKVVVYSNTIQSIIAIIRAMGRLKIDFGEAARADDARQLFVLAGSAEEGVMTPELAGVIKRLWRDGGVQACFSRSREYQLNDSASYYLNDLDRISQSNYIPTQQDVLRTRVKTTGIVETHFTFKDLYFKMFDVGGLRSERKKWIHCFEGVTAIIFCVALSDYDLVLAEDEEMNRMHESMKLFDSICNNKWFTETSIILFLNKKDLFEEKIKRSPLTICYPEYTGSNTYEEAAAYIQCQFEDLNRRKDTKEIYTHFTCATDTKNVQFVFDAVTDVIIKNNLKE
modifications: myristoylation at the N-terminal glycine
notes: hexa-histidine tag inserted between M119 and T120; Incubated with 1 mM GTP for 1 h at 30 °C before use; The His tag is internal and no cleavage is described; Myristoylation of the N-terminal glycine implies loss of the first methionine; also called myristoylated Gαi3^Q204L
